Laboratory results reported in US20210079037A1, “LIGHT-SWITCHABLE POLYPEPTIDE AND USES THEREOF” (TECHNISCHE UNIVERSITÄT MÜNCHEN, priority 2017, published 2021).
Numbered stars: 1 amine (or outer) side, 2 acyl side, 3 side chain; on linkers, the order of the positions; unused ones are H or OH. Square brackets hold non-standard residues; d marks the D form. Caf = 4′-carboxyphenylazophenylalanine, O=C([C@H](Cc1ccc(/N=N/c2ccc(C(=O)[*:3])cc2)cc1)N[*:1])[*:2]

Molecular target: mouse anti-6×His antibody alkaline phosphatase (AP) conjugate (Arigo Biolaboratories)
Assay: ELISA, curve fit; ProtL^Caf337-ABD in a dilution series on HSA-coated plate, Ig-AP conjugate at 1:1000; ground state (trans-Caf)

Kd: 140 nM
B1: ProtL^Caf337-ABD (designed binder)
chain: MKEEVTIKVNLI[Caf]ADGKTQTAEFKGTFEEATAKAYANADLSAKENGEYTADLEDGGNTINIKFAGGAVDANSLAEAKVLANRELDKYGVSDYYKNLINNAKTVEGVKALIDEILAALP
